# Measurements reported in the DeepSol protein solubility set.
# Test: soluble on expression in E. coli; label from the status in PepcDB or PDB records
row,Sequence,soluble on expression in E. coli
1,GPGSMFVEDKGLISEANLRALHVGTLKLHLFLQEWILPVSFSEKYGYKKEVLEEIIERYGSGSAAEARWTFEQLLGECEVPGQISWLEEHISEDIPYFYIADLFDSWCNLHRNLFVCSADAHETAKRSDDRFESELLCKGVIEKAISGVLPYDTAVRALCILAIGCRTNTQFMLKTIKPDFIINRYKLYTDDLAQPIDGNTDVTPLAEVNAATIGLLNALNTELQEQEKLKLWKSSTARKLPLLMQLNATPWCDSVDSLRRGLKGITSNNAATLLEEATQYFRCSELSK,not soluble
2,MTDQPIIDYRFLEPLPRGIILAATPLGNIGDASPRLAQALAQAHVVAAEDTRRTRALAQALGVEITGQVLSNFDHNEQGRAQQLVEMARTHTVVVVTDAGMPIVSDPGFPLVEAAHKAGVPVTCFPGPSAVPTALALSGLHVGKFAFDGFAPRKQGQRRAWLESLQQEQRAVCFFESPHRIAATLADAAEVLGAKRRAAVARELTKTFEEVRRGGLGELAEWAAKGIKGEVSVVIEGVQHVQHEDVHSLVAVVEERVLAGERLKSACGEVAAHYGVSKKQLYDAVLESRAE,soluble
3,MDRINGLSDEIICHILSFLPTKESALTSVLSKRWRNLFALTPNLHLVDDDLEVGGCGQTLIDFVDRVLAVSSNLPIREFSIKC,soluble
4,MAMVSEFLKQAWFIDNEEQEYIKTVKGSKGGPGSAVSPYPTFNPSSDVEALHKAITVKGVDEATIIEILTKRTNAQRQQIKAAYLQEKGKPLDEALKKALTGHLEEVALALLKTPAQFDADELRAAMKGLGTDEDTLNEILASRTNREIREINRVYKEELKRDLAKDITSDTSGDYQKALLSLAKGDRSEDLAINDDLADTDARALYEAGERRKGTDLNVFITILTTRSYPHLRRVFQKYSKYSKHDMNKVLDLELKGDIENCLTVVVKCATSKPMFFAEKLHQAMKGIGTRHKTLIRIMVSRSEIDMNDIKACYQKLYGISLCQAILDETKGDYEKILVALCGGD,soluble
5,MGHHHHHHSHMVSTATHSLSRLHTMLTGLRNAPSEKLEQILRTCSRDPTQAIANRLKEMFEIYSQHFQPDEDFSNCAKEIASKHFRFAEMLYYKVLESVIEQEQKRLGDMDLSGILEQDAFHRSLLACCLEVVTFSYKPPGNFPFITEIFDVPLYHFYKVIEVFIRAEDGLCREVVKHLNQIEEQILDHLAWKPES,not soluble
6,MGSDKIHHHHHHLKPNNNTNKGVDYWTNRISELEMPALCSTVKSLEKLAKDDVSSLALLGRSVMHDNALTSRILRVANSAIYHKGSSQISTVSRAAIVLGFDAVRNICITAKLLSSLLESKNLAPNVYQRLIKLMAKAFQAAMIARMMLSHHDEEMQEEAFIASLLYHIGESAFWSIGGEFTEELDLTLCQCETPAEERSATREALGASFLQLTQSIARNWGLGELLIQALNYPEDQRPDIRAIFLADKLCDILSQPVLDKLELAKRMTQAAIFTGLEEKEFLVRMQRCANATHKLAEVYGAKVLLDYLPDPKRIVAAEPDLPPIPLDMPVYQVNLNIQLAKLRELTGFAINKADFNQIMQTVLEGILEGVGVDRCGVLLLSPSRKQLQPRVILGRDADAIKQEFIIDLSDKRGLFHQAMEHKAPLWVDDPSSKNGRSSARSCKRGTCHGRAFYWRLCWLIAK,not soluble
7,MRREERNMDKLLISFLLSLFMVYFPPSDVVLPSQFEASTDSYVPMSSYPQETQSAKTPSPGSMHPAELIKEYSPLAQSVRQLSVKPLDEPLINRLEKALAVPVKYQSNYLRILEHHHHHH,not soluble
8,MSLSNERSSEKTLQNLKTQLLEDSSFLSKLREKITPHIDDHDIQKIIRDYLLTNPEIIIEMQLILQDKLEKQSAQNTQKQASIINSLKKQIFQSPYDAVLGNPNGKRVLVDFFDYNCGYCKISYPYIENLIKEYPDLRVIIKDLPILGSDSMAAHIVAYAFRKQFPEKYPQFYKELLTHQSRANEIKAIKIAVSLGADEKKLRNAIKDSSLQNAFKKNIQIASRLNITGTPSYIIGDKLLIGAVSEEILKEAIENMQEGHHHHHH,soluble
9,MQNGYTYEDYQDTAKWLLSHTEQRPQVAVICGSGLGGLVNKLTQAQTFDYSEIPNFPESTVPGHAGRLVFGILNGRACVMMQGRFHMYEGYPFWKVTFPVRVFRLLGVETLVVTNAAGGLNPNFEVGDIMLIRDHINLPGFSGENPLRGPNEERFGVRFPAMSDAYDRDMRQKAHSTWKQMGEQRELQEGTYVMLGGPNFETVAECRLLRNLGADAVGMSTVPEVIVARHCGLRVFGFSLITNKVIMDYESQGKANHEEVLEAGKQAAQKLEQFVSLLMASIPV,soluble
